Reference: US10428140B2, “Anti-EphA4 antibody” (EISAI R&D MANAGEMENT CO., LTD., priority 2015, dated 2019)

Legend:
[1] = system: human iPS cell-derived motor neuron / variant human SOD1 (G93A)-expressing astrocyte coculture; assay: Motor neuron protection in in vitro ALS model derived from human iPS cells; format: cell-based; conditions: antibody A 10, 30, 100 nM; EphA4-Fc 3, 10, 30 nM; KYL peptide 1, 3, 10 μM; 2 days
Description: Human iPS cells were maintained and cultured according to the following steps. Human iPS cells (201B7) cryopreserved in liquid nitrogen using Stem cell banker (TAKARA) were taken out of the gas phase of liquid nitrogen and immediately suspended and thawed in 5 mL of a human iPS cell culture medium (Essential 8, Thermo Fisher Scientific) prewarmed to 37° C. The cell suspension was recovered into a 15-mL conical tube (Falcon) and centrifuged (1000 rpm, 5 min, room temperature), followed by the removal of the supernatant. The cells were suspended in a fresh medium and then disseminated to a ϕ60 mm cell culture dish (Falcon BD) coated with 0.5 μg/cm^2 Human recombinant vitronectin (Invitrogen) in advance. 10 μM Y-27632 (Wako Pure Chemical Industries) was added thereto, and the cells were maintained and cultured in a CO2 incubator (5% CO2, 37° C.). Medium replacement was performed every day, and the cells were subjected to the experiment when reaching confluency.
The culture medium of the maintained and cultured human iPS cells was aspirated, and the cells were washed with 2 mL of PBS (Wako Pure Chemical Industries). […] Then, the number of cells was counted using a counting chamber. […]

[2] = molecular target: T1, mouse EphA4 (binding to mouse Ephrin A1) (Mus musculus, UniProt Q03137); assay: Mouse EphA4-mouse ligand binding inhibition ELISA (Ephrin A1-Fc); conditions: mouse EphA4-mouse ligand binding inhibition
T1 construct: made in house; host or cells: HEK293EBNA cells
T1 sequence (Q03137 with tags, fused parts or gaps): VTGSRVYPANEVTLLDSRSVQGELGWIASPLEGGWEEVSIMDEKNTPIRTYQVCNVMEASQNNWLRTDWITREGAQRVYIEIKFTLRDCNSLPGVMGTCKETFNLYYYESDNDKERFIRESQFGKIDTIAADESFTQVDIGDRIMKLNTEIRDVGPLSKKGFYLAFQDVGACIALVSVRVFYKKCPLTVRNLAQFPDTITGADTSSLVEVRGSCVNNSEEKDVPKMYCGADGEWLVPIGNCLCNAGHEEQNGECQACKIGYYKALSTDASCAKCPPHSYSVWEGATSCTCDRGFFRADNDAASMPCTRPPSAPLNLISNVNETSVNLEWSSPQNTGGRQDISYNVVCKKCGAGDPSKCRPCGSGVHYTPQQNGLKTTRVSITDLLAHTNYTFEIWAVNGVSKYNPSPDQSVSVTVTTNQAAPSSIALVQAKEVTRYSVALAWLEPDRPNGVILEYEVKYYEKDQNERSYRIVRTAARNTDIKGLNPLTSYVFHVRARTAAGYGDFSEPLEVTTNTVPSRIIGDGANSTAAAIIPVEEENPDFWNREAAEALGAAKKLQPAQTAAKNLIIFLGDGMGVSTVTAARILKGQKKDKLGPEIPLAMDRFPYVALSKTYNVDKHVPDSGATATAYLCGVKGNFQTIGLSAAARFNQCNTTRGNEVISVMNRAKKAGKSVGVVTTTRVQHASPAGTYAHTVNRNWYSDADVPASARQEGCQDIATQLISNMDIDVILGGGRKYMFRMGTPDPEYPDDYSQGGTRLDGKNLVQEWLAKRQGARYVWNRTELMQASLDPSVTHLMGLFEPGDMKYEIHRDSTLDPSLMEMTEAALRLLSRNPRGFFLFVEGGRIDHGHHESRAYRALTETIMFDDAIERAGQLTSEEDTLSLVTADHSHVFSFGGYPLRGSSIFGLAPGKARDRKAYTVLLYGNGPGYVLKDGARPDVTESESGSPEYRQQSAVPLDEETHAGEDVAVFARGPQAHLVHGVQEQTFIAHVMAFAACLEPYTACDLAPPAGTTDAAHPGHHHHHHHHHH
Description: Antibody A obtained in Example 1 was evaluated for its inhibitory activity against the binding between mouse EphA4 and its mouse ligand according to the following steps. Each well of a 96-well plate (Nunc) was coated with an anti-alkaline phosphatase antibody (Thermo Fisher Scientific). After incubation overnight at 4° C., each well was blocked with 1% BlockAce (DS Pharma Biomedical) at room temperature for 1 hour. After washing with 0.05% Tween 20/PBS (Thermo Fisher Scientific) three times, the mouse EphA4 extracellular region-SEAP-His protein obtained by the method of Example 1 was added (final concentration: 10 nM) to each well and incubated at room temperature for 1 hour. After washing three times, ligands and serially diluted antibody A (0, 0.001, 0.003, 0.01, 0.03, 0.1, 0.3, 1,3, 10, 30, 100, 300, and 1000 nM) or a known EphA4 inhibitor KYL peptide (KYLPYWPVLSSL, 0, 0.003, 0.01, 0.03, 0.1, 0.3, 1, 3, 10, 30, and 100 μM, its synthesis was outsourced to Hokkaido System Science) or compound 1 (0, 0.03, 0.1, 0.3, 1,3, 10, 30, 100, 300, and 1000 μM, Formula 1, Matrix Scientific) were added to each well. The ligands used were mouse Ephrin A1-Fc chimera (R&D Systems, final concentration: 20 nM) and mouse Ephrin B2-Fc chimera (R&D Systems, final concentration: 0.6 nM). […] The absorbance at 450 nm was read using a microplate reader (Molecular Devices).

B1: antibody A: mouse anti-EphA4 monoclonal antibody, IgG1/κ; heavy chain variable region SEQ ID NO: 11, light chain variable region SEQ ID NO: 13 (antibody, listed as Mus musculus, V domains shown)
VH: QIQLVQSGPELKKPGETVKISCKASGYTFTDYSMHWVKQAPGKGLKWMGWINTETGEPTYADDFKGRFAFSLETSASTAYLQINNLKNEDTATYFCARIPLYYYGSRYWYFDVWGAGTTVTVSS
VL: DIQMTQSPASLSVSVGETVTITCRASENIYRNLAWYQQKQGKSPQLLVYAATNLADGVPSRFSGSGSGTQYSLKINSLQSEDFGSYYCQHFWGTPWTFGGGTKLEIK
In the case of B1, the “suppression of motor neuron death / motor neuron protective effect (in words)” value [1] is reported as “suppressed, in a concentration-dependent manner” and the “activity relative to KYL peptide (times stronger)” value [2] is reported as ≥ 1,000 times.
